B1: CDC25A (parent)
chain: KPIVPTDGKRVIVVFHCEFSSERG
B2: SOAT2 (parent)
chain: SLGKQKVFIIRKSLLDELMEVQHF

Variants of: B1
Test: protein stability index of a GFP-peptide fusion (GPS, HEK-293T) (PSI 1-6); higher = more stable
Settings: c terminus: a fixed tail appended
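Further: lentivirally expressed fusions sorted by FACS into six bins by GFP to DsRed ratio, PSI derived from sequencing read proportions per bin multiplied by bin number.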

Variant | protein stability index
D7F | 2.17
G24T | 3.03
D7Q | 2.76
V11L | 2.82
I12W | 2.49
G8T | 2.3
I12D | 3.47
V4A | 2.12
G8A | 2.26
P2L | 1.83
S20P | 1.92
K1Y | 1.55
H16E | 1.5
H16N | 1.87
R10S | 2.33
V4K | 2.11
D7M | 2.53
T6Q | 3.58
E22I | 2.65
E18P | 2.31

Variant | protein stability index
V4P | 2.75
P5N | 4.39
D7R | 2
K9E | 2.58
R23P | 2.35
E18C | 2.17
K9N | 2.31
K1N | 1.62
K9L | 2.69
V4T | 1.42
P5I | 2.42
R23V | 3.12
G8K | 1.82
S20D | 1.68
S21N | 2.46
R23Q | 2.61
G24V | 2.56
S20C | 2.23
P5Q | 2.27
C17Q | 2.32

Variant | protein stability index
K9R | 2.92
S21R | 1.2
P5E | 2.33
G24D | 2.09
V11I | 3.01
K9C | 2.67
E22V | 2.03
G24Y | 2.74
I3H | 1.89
I12R | 1.94
P2H | 2.44
D7W | 4.57
F19T | 2.1
V11D | 2.65
V13D | 3.69
V14F | 1.83
C17H | 1.38
F15L | 3.28
I3T | 2.19

Variants of: B2
Test: as above
Settings: c terminus: a fixed tail appended

Variant | protein stability index
S1Q | 2.6
R11C | 2.61
M19K | 2.89
L18G | 2.62
I10L | 2.38
R11Y | 3.21
Q5A | 2.54
L15R | 2.41
L14N | 2.26
M19R | 1.94
L15Y | 1.52
F8N | 1.5
K6G | 1.99
E20G | 2.85
E20D | 1.63
I9Q | 1.89
Q5V | 2.91
D16L | 3.27
Q5L | 3.31
S13W | 1.73
L14Y | 2.03
Q5N | 2.51

Variant | protein stability index
S1A | 2.41
F24I | 2.9
E20V | 1.83
K6W | 2.47
V7G | 1.82
L2Y | 2.69
M19F | 3.18
K4Q | 1.96
L18A | 1.46
L14F | 2.52
I10D | 2.41
Q22W | 2.77
K12H | 3.61
D16A | 1.7
F8L | 2.02
F8C | 2.49
S13I | 3.3
V21G | 1.77
S13M | 2.22
V21E | 1.99
R11I | 2.78
S1I | 3.6

Variant | protein stability index
F24Y | 2.74
F8S | 2.03
F24A | 1.8
E17A | 3.06
D16M | 3.67
G3K | 1.74
L14G | 2.2
G3D | 2.12
K12V | 3.02
F8K | 1.88
V21L | 2
L18P | 1.38
Q5W | 2.93
I9R | 1.8
G3P | 1.76
Q5K | 2.63
H23K | 1.41
V21N | 2
L2D | 1.4
I10V | 2.52
H23W | 3.71
Q22D | 1.91

Variant | protein stability index
I9M | 2.21
S1H | 2
L18M | 1.7
L2S | 3.5
L15A | 1.6
K4R | 2.29
K4H | 2.31
S1P | 2.99
E20P | 1.45
Q5F | 3.55
E20S | 2.48
K6C | 3.68
L14A | 2.72
D16Y | 3.13
L14I | 3.27
I10Y | 1.48
L2R | 2.42
G3N | 2.07
L14Q | 1.64
D16T | 2.14
G3C | 3.08
H23E | 1.9

Variant | protein stability index
K6L | 2.24
M19V | 1.66
K6S | 2.46
K6F | 2.71
R11H | 2.43
S1L | 3.27
L15Q | 1.8
H23I | 2.72
Q5I | 2.44
V21P | 2.16
V7I | 3.05
I10W | 1.89
F8A | 1.76
F8P | 1.66
F8G | 1.93
L18D | 2.01
E20M | 2.66
M19L | 2.67
L15S | 2.23
F24W | 2.78

Reference: the supplement of paper PMC10567573
